Results reported in CN101443359A (GENENTECH INC, dated 2009).

What was measured:
重组人EGFL7蛋白 = target: T1, 重组人EGFL7蛋白 (human, UniProt Q9UHF1 24-273, limits assumed); test: SPR, BIAcore 3000, room temperature, polyHis-tagged EGFL7 injected, 1:1 model, mAb stock in 50mM Tris/125mM NaCl
T1 construct: also called hEGFL7; 带polyHis标签的EGFL7
T1 sequence (looked up): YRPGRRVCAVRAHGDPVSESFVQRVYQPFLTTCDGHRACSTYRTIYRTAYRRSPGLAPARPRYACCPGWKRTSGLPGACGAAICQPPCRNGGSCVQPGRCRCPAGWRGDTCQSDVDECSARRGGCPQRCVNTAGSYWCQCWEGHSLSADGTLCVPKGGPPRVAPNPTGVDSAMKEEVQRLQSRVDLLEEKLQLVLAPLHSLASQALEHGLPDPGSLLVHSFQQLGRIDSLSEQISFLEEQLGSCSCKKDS

重组小鼠EGFL7蛋白 = target: T2, 重组小鼠EGFL7蛋白 (mouse, UniProt Q9QXT5 22-275, limits assumed); test: as above
T2 construct: also called mEGFL7; 带polyHis标签的EGFL7
T2 sequence (looked up): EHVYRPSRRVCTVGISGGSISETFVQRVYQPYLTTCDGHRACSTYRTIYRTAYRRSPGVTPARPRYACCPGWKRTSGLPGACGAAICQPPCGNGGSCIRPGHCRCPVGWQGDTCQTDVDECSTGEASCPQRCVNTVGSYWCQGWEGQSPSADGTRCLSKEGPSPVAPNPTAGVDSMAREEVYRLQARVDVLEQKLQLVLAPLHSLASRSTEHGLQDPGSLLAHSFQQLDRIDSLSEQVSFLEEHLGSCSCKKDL

B1: 抗EGFL7鼠单抗4F11.1.8 (antibody, V domains shown)
VH: QIQLVQSGPELKKPGETVKISCKASGHTFTTYGMSWVKQAPGKGLKWMGWINTHSGVPTYADDFKGRFAFSLETSASTAHLQINNLKNEDTATYFCARLGSSAVDYWGQGTTVTVSS
VL: DIVLTQSPASLAVSLGQRATISCKASQSVDYDGDSYMSWYQQKPGQPPKLLIYGASNLESGIPARFSGSGSGTDFTLNIHPVEEEDAATYYCQQNNEDPYTFGGGTKVEIKR
notes: Hybridoma deposit PTA-7343
- Kd (重组人EGFL7蛋白): 0.473 nM
- Kd (重组小鼠EGFL7蛋白): 0.756 nM
